{"source": "paper PMC7427093", "about": "“Revising the mechanism of p75NTR activation: intrinsically monomeric state of death domains invokes the \"helper\" hypothesis” (Scientific Reports, 2020)", "molecules": {"B1": {"name": "rP75-ΔECD-3CX-249C: rat p75NTR residues 245-425 with T249C, C279S, C379S, C416S (domain or fragment, UniProt P07174 245-425, looked up)", "chain": "TRGTCDNLIPVYCSILAAVVVGLVAYIAFKRWNSSKQNKQGANSRPVNQTPPPEGEKLHSDSGISVDSQSLHDQQTHTQTASGQALKGDGNLYSSLPLTKREEVEKLLNGDTWRHLAGELGYQPEHIDSFTHEASPVRALLASWGAQDSATLDALLAALRRIQRADIVESLSSESTATSPV", "notes": "p75 neurotrophin receptor (p75NTR), rat, UniProt P07174, residues 245-425 (transmembrane and intracellular domains); also called T249C mutant; p75-ΔECD-T249C; source: also in the membrane fraction of E. coli, not purified"}}, "key": {"[1]": {"biological_target": "p75NTR death domain (Homo sapiens) (UniProt P08138)", "assay": "homo-FRET", "conditions": "cited from earlier work"}, "[2]": {"biological_target": "the molecule itself", "assay": "cross-linking; spontaneous disulfide formation of purified protein in DMPC/CHAPS q = 1 bicelles, LPR 1,000:1 (repeated at 200:1), without reducing agent, room temperature; non-reducing SDS-PAGE at several time points; irreversible second-order kinetics"}}, "note": "Several values for one entry are separate records, joined by “and”; a condition that tells them apart may be missing. Equal values may be shown once."}
{"molecule": "p75NTR death domain (from UniProt P08138)", "values": [{"measurement": "Kd", "setting": "[1]", "value": 49, "unit": "µM"}]}
{"molecule": "B1", "values": [{"measurement": "stoichiometry N", "setting": "[2]", "value": "2 and 4 and 6"}]}
